In patent publication US20210301005A1 (Genentech, published 2021):
Substitutions are numbered along the chain they refer to. Numbers in names are those of the source. Like-named read-outs stand apart in the source and are kept apart here.

What was measured:
[1] = target: T1, human TGFβ2, mature receptor-binding domain (human, UniProt P09858 303-414 (pig entry), The mature TGFβ2 is a disulfide-linked homodimer of this 112-residue chain. The 4A11 epitope spans both monomers (p-1207).); test: BIAcore T200
T1 construct: Peprotech; also called TGFb2
T1 sequence: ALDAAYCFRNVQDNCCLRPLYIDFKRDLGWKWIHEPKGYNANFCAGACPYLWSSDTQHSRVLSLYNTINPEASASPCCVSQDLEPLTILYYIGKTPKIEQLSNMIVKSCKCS
Method: (§1) For binding affinity determinations of all humanized 2A10 antibodies, Surface Plasmon Resonance (SPR) measurement with a BIAcore™-T200 instrument was used. Briefly, series S CM5 biosensor chip with protein A was first applied to capture each humanized 2A10 variant to achieve approximately 100 response units (RU) on each flow cell, following by injection of 3-fold serial dilutions of human TGFβ1, TGFβ2 or TGFβ3 (0.02 nM to 5 nM) in HBS-EP buffer (0.01M HEPES pH 7.4, 0.15M NaCl, 3 mM EDTA and 0.05% v/v surfactant P20) at 25° C. with a flow rate of 50 μl/min for kinetics measurement. Association rates (ko.) and dissociation rates (koff) were calculated using a simple one-to-one Langmuir binding model (BIAcore T200 evaluation software version 2.0) to determine the equilibrium dissociation constant (KD), which was calculated as the ratio koff/kₒₙ.
(§2) Binding affinity determinations of all humanized 4A11 antibodies were performed using SPR measurement with a BIAcore™-T200 instrument, as described above in Example 6 ([…]).

[2] = target: T2, human TGFβ3, mature dimeric form (human, UniProt P10600 301-412); test: BIAcore T200
T2 construct: Peprotech, expressed in E. coli; also called TGFb3
T2 sequence: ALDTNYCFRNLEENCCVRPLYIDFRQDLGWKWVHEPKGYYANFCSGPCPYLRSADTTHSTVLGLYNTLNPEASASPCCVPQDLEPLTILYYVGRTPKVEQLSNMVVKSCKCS
Method: as §1, §2

[3] = target: T3, human TGFβ1, mature receptor-binding domain (human, UniProt P01137 279-390); test: BIAcore T200
T3 construct: Peprotech; also called TGFb1
T3 sequence (P01137 279-390 limits assumed): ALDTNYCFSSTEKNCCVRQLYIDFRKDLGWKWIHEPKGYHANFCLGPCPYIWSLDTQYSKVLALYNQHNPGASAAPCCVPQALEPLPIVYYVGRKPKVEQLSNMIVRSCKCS
Method: as §1, §2

[4] = target: T1, human TGFβ2, mature receptor-binding …; test: BIAcore T200; remark: listed apart in the source
Method: as §1, §2

[5] = target: T2, human TGFβ3, mature dimeric form; test: BIAcore T200; remark: listed apart in the source
Method: as §1, §2

[6] = target: T3, human TGFβ1, mature receptor-binding …; test: BIAcore T200; remark: listed apart in the source
Method: as §1, §2

[7] = target: T1, human TGFβ2, mature receptor-binding …; test: BIAcore T200; remark: listed apart in the source
Method: as §1, §2

[8] = target: T2, human TGFβ3, mature dimeric form; test: BIAcore T200; remark: listed apart in the source
Method: as §1, §2

[9] = target: T3, human TGFβ1, mature receptor-binding …; test: cell-based or functional assay
[10] = target: T1, human TGFβ2, mature receptor-binding …; test: cell-based or functional assay
[11] = target: T2, human TGFβ3, mature dimeric form; test: cell-based or functional assay
[12] = target: T3, human TGFβ1, mature receptor-binding …; test: cell-based or functional assay; remark: listed apart in the source
[13] = target: T1, human TGFβ2, mature receptor-binding …; test: cell-based or functional assay; remark: listed apart in the source
[14] = target: T2, human TGFβ3, mature dimeric form; test: cell-based or functional assay; remark: listed apart in the source
[15] = target: T3, human TGFβ1, mature receptor-binding …; test: cell-based or functional assay; remark: listed apart in the source
[16] = target: T1, human TGFβ2, mature receptor-binding …; test: cell-based or functional assay; remark: listed apart in the source
[17] = target: T2, human TGFβ3, mature dimeric form; test: cell-based or functional assay; remark: listed apart in the source
[18] = target: T3, human TGFβ1, mature receptor-binding …; test: SPR
[19] = target: T3, human TGFβ1, mature receptor-binding …; test: cell-based or functional assay; remark: listed apart in the source
[20] = target: T1, human TGFβ2, mature receptor-binding …; test: cell-based or functional assay; remark: listed apart in the source
[21] = target: T2, human TGFβ3, mature dimeric form; test: cell-based or functional assay; remark: listed apart in the source
[22] = target: T1, human TGFβ2, mature receptor-binding …; test: SPR
[23] = target: T2, human TGFβ3, mature dimeric form; test: SPR
[24] = target: T2, human TGFβ3, mature dimeric form; test: BIAcore T200; remark: listed apart in the source
[25] = target: T1, human TGFβ2, mature receptor-binding …; test: BIAcore T200; remark: listed apart in the source
Method: as §1

[26] = target: T2, human TGFβ3, mature dimeric form; test: BIAcore T200; remark: listed apart in the source
Method: as §1

[27] = target: T3, human TGFβ1, mature receptor-binding …; test: cell-based or functional assay; remark: listed apart in the source
[28] = target: T1, human TGFβ2, mature receptor-binding …; test: cell-based or functional assay; remark: listed apart in the source
[29] = target: T2, human TGFβ3, mature dimeric form; test: cell-based or functional assay; remark: listed apart in the source
[30] = target: T1, human TGFβ2, mature receptor-binding …; test: BIAcore T200; remark: listed apart in the source
Method: as §1

[31] = target: T2, human TGFβ3, mature dimeric form; test: BIAcore T200; remark: listed apart in the source
Method: as §1

[32] = target: T3, human TGFβ1, mature receptor-binding …; test: cell-based or functional assay; remark: listed apart in the source
[33] = target: T1, human TGFβ2, mature receptor-binding …; test: cell-based or functional assay; remark: listed apart in the source
[34] = target: T2, human TGFβ3, mature dimeric form; test: cell-based or functional assay; remark: listed apart in the source

B1: h4A11.v7 (antibody, human IgG1, kappa, N297G)
heavy: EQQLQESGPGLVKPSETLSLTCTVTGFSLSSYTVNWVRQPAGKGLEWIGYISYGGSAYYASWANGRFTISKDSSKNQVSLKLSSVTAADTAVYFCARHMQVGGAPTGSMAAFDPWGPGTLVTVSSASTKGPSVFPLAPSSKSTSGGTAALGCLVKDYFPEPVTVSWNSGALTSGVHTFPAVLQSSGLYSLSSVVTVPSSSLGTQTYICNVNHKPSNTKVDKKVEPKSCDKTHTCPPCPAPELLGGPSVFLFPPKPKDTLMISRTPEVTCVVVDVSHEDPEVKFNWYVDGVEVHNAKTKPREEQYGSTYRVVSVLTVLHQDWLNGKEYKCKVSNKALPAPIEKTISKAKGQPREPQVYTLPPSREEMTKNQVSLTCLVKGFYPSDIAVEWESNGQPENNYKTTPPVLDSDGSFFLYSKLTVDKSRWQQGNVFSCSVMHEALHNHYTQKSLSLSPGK
light: EAVLTQSPGTLSLSPGERATLSCQSSQSVYNNNYLSWFQQKPGQPPRLLIYGASTLTSGVPDRFSGSGSGTDFTLTISRLEPEDFAVYYCAGGYSGSSDKYAFGGGTKVEIKRTVAAPSVFIFPPSDEQLKSGTASVVCLLNNFYPREAKVQWKVDNALQSGNSQESVTEQDSKDSTYSLSSTLTLSKADYEKHKVYACEVTHQGLSSPVTKSFNRGEC
With B1 as the binder, how does the Kd [1] read?
The Kd was 0.0063 nM.

And the Kd [2]?
Its Kd is 0.0097 nM.

And the Kd [3]?
Its Kd is greater than 5 nM.

What about the Kd [4] of the same binder?
Its Kd is 0.0063 nM.

What about the Kd [5] of the same binder?
The Kd was 0.0097 nM.

What about the Kd [6] of the same binder?
The Kd was greater than 5 nM.

What about the Kd [7] of the same binder?
Its Kd is 0.0063 nM.

And the Kd [8]?
Its Kd is 0.0097 nM.

And the “HEKBlue TGFβ blocking IC50” value [9]?
Its value is greater than 200 nM.

And the “HEKBlue TGFβ blocking IC50” value [10]?
Its value is 0.09 nM.

And the “HEKBlue TGFβ blocking IC50” value [11]?
The value was 0.03 nM.

And the “HEKBlue TGFβ blocking IC50” value [12]?
Its value is greater than 200 nM.

And the “HEKBlue TGFβ blocking IC50” value [13]?
Its value is 0.09 nM.

What about the “HEKBlue TGFβ blocking IC50” value [14] of the same binder?
Its value is 0.03 nM.

What about the “HEKBlue TGFβ blocking IC50” value [15] of the same binder?
The value was greater than 200 nM.

What about the “HEKBlue TGFβ blocking IC50” value [16] of the same binder?
Its value is 0.09 nM.

What about the “HEKBlue TGFβ blocking IC50” value [17] of the same binder?
The value was 0.03 nM.

B2: 21D1 (antibody, V domains shown)
VH: QVQLVQSGAEVKKPGASVKVSCKASGYTFTDYNIHWVRQAPGQGLEWMGYIYPYDGETGYNQKFKSRVTMTTDTSTSTAYMELRSLRSDDTAVYYCARGYRWFAYWGQGTLVTVSS
VL: DIQMTQSPSSLSASVGDRVTITCRASSSVPYMHWFQQKPGKAPKSLIYATSNPAYGVPSRFSGSGSGTDFTLTISSLQPEDFATYYCQQWDLNPPAFGQGTKLEIKR
What does the source list for B2?
Kd [18]: 0.008 nM; Blocking IC50 [19]: 0.013 nM; Blocking IC50 [20]: > 200 nM; Blocking IC50 [21]: > 200 nM

B3: 1D11 (antibody, V domains shown)
VH: QVQLQQSGPELVRPGASVKLSCKASGYIFITYWMNWVKQRPGQGLEWIGQIFPASGSTNYNEMFEGKATLTVDTSSSTAYMQLSSLTSEDSAVYYCARGDGNYALDAMDYWGQGTSVTVSS
VL: DIVLTQSPASLAVSLGQRATISCRASESVDSYGNSFMHWYQQKSGQPPKLLIYLASNLESGVPARFSGSGSRTDFTLTIDPVEADDAATYYCQQNNEDPLTFGAGTKLEIK
notes: also called pan-TGFβ antibody 1D11
Which Kd [18] does the source give for B3 here?
Its Kd is 0.038 nM.

And the Kd [22]?
The Kd was 0.009 nM.

What about the Kd [23] of the same binder?
Its Kd is 0.007 nM.

What about the “Blocking IC50” value [19] of the same binder?
Its value is 0.5 nM.

And the “Blocking IC50” value [20]?
Its value is 3.6 nM.

What about the “Blocking IC50” value [21] of the same binder?
Its value is 0.04 nM.

B4: h2A10.v2.N54Q (antibody, human IgG1, kappa, N297G, V domains shown)
VH: EVQLLESGGGLVQPGGSLRLSCAASGFDFNSYGMSWVRQAPGKGLELVADIVSKTYQYTTYYSDSVKDRFTISRDDSKSTVYLQMNSLRAEDTAVYYCTVAPGGSFDYWGQGTLVTVSS
VL: DIQLTQSPSSLSASVGDRVTITCRASQSVSISRFNLMHWYQHKPGKQPKLLIYRASNLASGIPSRFSGSGSGTDFTLTISSLQPEDFATYYCQHSRESPWTFGGGTKVEIKR
How did the “fold drop in TGFβ3 binding against h2A10.v2” value [24] turn out when B4 was run?
Its value is less than 2 fold.

And the Kd [25]?
Its Kd is 0.378 nM.

What about the Kd [26] of the same binder?
The Kd was 0.0025 nM.

What about the “HEKBlue TGFβ blocking IC50” value [27] of the same binder?
Its value is greater than 200 nM.

What about the “HEKBlue TGFβ blocking IC50” value [28] of the same binder?
The value was greater than 200 nM.

What about the “HEKBlue TGFβ blocking IC50” value [29] of the same binder?
Its value is 0.01 nM.

B5: h2A10.v2.N54S (antibody, human IgG1, kappa, N297G, V domains shown)
VH: B4 VH with Q57S
VL: B4 VL
For B5, which “fold drop in TGFβ3 binding against h2A10.v2” value [24] is on record?
The value was less than 2 fold.

What about the Kd [25] of the same binder?
The Kd was 0.425 nM.

What about the Kd [26] of the same binder?
Its Kd is 0.0024 nM.

And the “HEKBlue TGFβ blocking IC50” value [27]?
Its value is greater than 200 nM.

And the “HEKBlue TGFβ blocking IC50” value [28]?
Its value is greater than 200 nM.

What about the “HEKBlue TGFβ blocking IC50” value [29] of the same binder?
Its value is 0.01 nM.

B6: h2A10.v4 (antibody, human IgG1, kappa, N297G, V domains shown)
VH: B4 VH with A49S, Q57N, T59A, S79N, V81L
VL: B4 VL with H42Q, Q47A, I62V
notes: human IgG1
B6 was tested. Which Kd [30] did it give?
The Kd was 0.3 nM.

What about the Kd [31] of the same binder?
Its Kd is 0.0019 nM.

And the “HEKBlue TGFβ blocking IC50” value [32]?
The value was greater than 200 nM.

What about the “HEKBlue TGFβ blocking IC50” value [33] of the same binder?
The value was greater than 200 nM.

And the “HEKBlue TGFβ blocking IC50” value [34]?
Its value is 0.01 nM.

B7: h2A10.v3 (antibody, human IgG1, kappa, N297G, V domains shown)
VH: B4 VH with A49S, Q57S, S79N, V81L
VL: B4 VL with H42Q, Q47A, I62V
notes: human IgG1
What does the source list for B7?
Kd [30]: 0.482 nM; Kd [31]: 0.0026 nM; HEKBlue TGFβ blocking IC50 [32]: > 200 nM; HEKBlue TGFβ blocking IC50 [33]: > 200 nM; HEKBlue TGFβ blocking IC50 [34]: 0.05 nM

B8: h2A10.v2.T56A (antibody, human IgG1, kappa, N297G, V domains shown)
VH: B4 VH with Q57N, T59A
VL: B4 VL
With B8 as the binder, how does the Kd [25] read?
Its Kd is 0.247 nM.

What about the Kd [26] of the same binder?
Its Kd is 0.001 nM.

What about the “HEKBlue TGFβ blocking IC50” value [27] of the same binder?
The value was greater than 200 nM.

And the “HEKBlue TGFβ blocking IC50” value [28]?
The value was greater than 200 nM.

What about the “HEKBlue TGFβ blocking IC50” value [29] of the same binder?
Its value is 0.01 nM.
